# Experimental data taken from US10227575B2, “Multi-domain enzymes having cutinase activity, compositions comprising same and uses thereof” (OZYMES, priority 2015, dated 2019).
# Read-outs that look alike come from different tables or passages of the source. Marks after values point to notes of the source that are not given here.
# B1: KrCUT: mature Kineococcus radiotolerans cutinase, amino acids 34-294 of SEQ ID NO: 1; SEQ ID NO: 6 (protein)
# chain: ATCSDVDVVFARGTGETPGLGVVGGPFVRSLTGELSDRTVTSHAVDYAASSSQASAGPGATAMSAHVREVAAACPSTRFVLGGYSQGATVTDIALGIRTGTTTGTPVPAELAGRVAAVVVFGNPLGLSGRTIATASSTYGPKSKDYCNSSDSVCGSAPKTGTGGHLSYASNGSTTDGARFAAGLVRAAGTPTTPTPTPTPTPVPTTCVRDSTRDHVAADRAVSLYGRAYARGSRDSLGATSSYNVVSLQQVEGGWRLVTAC
# modifications: Kineococcus radiotolerans; (1)..(261) KrCUT (lacking residues 1-33 of ssKrCUT)
# Experiments:
# Temperature optimum = assay type: biochemical; details: for Relative activity at temperature: highest activity set to 100%
# Method: For estimation of the temperature optimum, buffer containing pNP-palmitate (see esterase assay in Example 20.1) was pre-incubated to reach the desired temperature, enzyme was then added, and the formation of pNP was assayed. For this experiment, Tris/HCl buffer was replaced with sodium phosphate buffer (50 mM, pH 8.0) to avoid a pH shift at the different temperatures.
# [1] = Enzymatic activity in the presence of organic solvents; assay type: biochemical; details: buffer only = 100%
# Method: Enzyme activity in various organic solvents was studied over a concentration range of 1-30% at room temperature. pNP-palmitate was completely dissolved in 2-propanol (8 mM) and then added to 50 mM Tris/HCl buffer pH 8.0 containing up to 30% organic solvent to give a final substrate concentration of 0.8 mM. The reaction was started by addition of enzyme and the formation of pNP was assayed as described above in Example 20.1.
# [2] = assay type: biochemical, Petromyces albertensis; details: for Residual ochratoxin A (%): 5 ppm Ochratoxin A, 37° C., relative to incubation without enzyme
# Method: The enzymes purified in Example 18 were tested for their ability to degrade the mycotoxin Ochratoxin A. In general, the mycotoxin was incubated with different concentrations of the enzyme, and the remaining mycotoxin concentration, as well the respective degradation products, were monitored by LC-MS over time (where possible/applicable).
# Reactions were performed in 1 mL volumes in glass HPLC vials comprising the mycotoxin to be analyzed and the enzyme to be tested. For Ochratoxin A (Petromyces albertensis, 01877 Sigma), 50 μL of a 100 ppm stock solution in methanol (final concentration of 5 ppm) was added to 910 μL of distilled water and 40 μL of the enzyme to be tested. In control reactions, the volume of enzyme was substituted with distilled water. The reactions were incubated in an Eppendorf thermomixer at 37° C. with shaking at 750 rpm. 100 μL samples were withdrawn at 1, 4 and 24 h for chromatographic analysis.
# Mycotoxin analysis was carried out using a Shimadzu LCMS-2020 equipped with a UV/vis detector. Chromatographic separation of 10 μL injected sample was carried out at 30° C. on a Kinetex 2.6 μm XB-C18 column 100 Å (50×2.1 mm) using a binary gradient. For Ochratoxin A, eluent A consisted of water and eluent B consisted of acetonitrile and the UV detection wavelength was 360 nm.
# The five enzymes tested were screened for their ability to degrade 5 ppm (5,000 ppb) Ochratoxin A at 37° C.
# [3] = Circular dichroism spectroscopy, melting temperature and refolding; assay type: physicochemical
# Method: CD spectra were recorded using a Jasco™ J-815 spectrometer operating with the Spectra™ Manager software. Temperature was controlled using a Jasco™ PFD-452S peltier unit. Previously purified protein solutions were adjusted to 0.15 mg/mL (if quantities allowed for) and CD spectra were recorded between 190 and 250 nm using a Quartz cuvette (ID=0.1 cm). Blanks containing buffer only were prepared and used as baseline. Temperature dependent protein unfolding was monitored at 222 nm with thermo profiles ranging from 20 up to 90° C. (2° C. min-1). Samples were kept for 5 min at the respective maximum temperature and protein refolding was monitored using the same conditions as above reversing the thermo profiles. Thermodynamic parameters (Tm, ΔH, ΔS, ΔG) for the folding/unfolding process, if applicable, were calculated using the Spectra™ Manager software.
# pH dependence of enzymes = assay type: biochemical; details: for Relative activity (%): highest activity = 100%
# Method: The influence of different pH values (from 5.5 to 11) on the activities of the purified enzymes was examined in three buffer systems (sodium acetate, sodium phosphate, and Tris-HCl) at room temperature using pNP-palmitate (see esterase assay in Example 20.1) as a substrate at a final substrate concentration of 0.8 mM.
# [4] = Stability in the presence of hydrogen peroxide; assay type: physicochemical
# Method: Esterase activity was determined by monitoring the formation of para-nitrophenol (pNP) at 410 nm from various pNP-esters using a Beckman UV spectrophotometer (model DU 640). Substrates were completely dissolved in 2-propanol (8 mM) and were then added to 50 mM Tris/HCl buffer pH 8.0 to give a final substrate concentration of 0.8 mM. The reaction (1 mL) was started by adding an appropriate amount of enzyme. One enzyme unit (U) was defined as the amount of enzyme that produced 1 μmol of product (pNP) per min; specific activity was expressed as U/mg protein. A molar extinction coefficient of 15 mM^−1 cm^−1 was used for the calculation.
# Purified cutinases were incubated at room temperature in the presence of 0, 30, 100, 300, 1500, and 3000 ppm of hydrogen peroxide. Residual enzyme activity was assayed (see Example 20.1) after 1, 2, 3, and 7 days of incubation.
# [5] = Activity of crude culture supernatants from bioreactor; assay type: biochemical; details: pNP-dodecanoate
molecule,measurement,setting,value
B1,Temp. opt. (° C.),Temperature optimum,45 °C
same,Relative activity at temperature,Temperature optimum; 20 ° C.,83 ± 5%
same,Relative activity at temperature,Temperature optimum; 25 ° C.,84 ± 4%
same,Relative activity at temperature,Temperature optimum; 30 ° C.,83 ± 4%
same,Relative activity at temperature,Temperature optimum; 35 ° C.,84 ± 4%
same,Relative activity at temperature,Temperature optimum; 40 ° C.,89 ± 6%
same,Relative activity at temperature,Temperature optimum; 45 ° C.,100* %
same,Relative activity at temperature,Temperature optimum; 50 ° C.,90 ± 4%
same,Relative activity at temperature,Temperature optimum; 55 ° C.,38 ± 3%
same,Relative activity at temperature,Temperature optimum; 60 ° C.,15 ± 5%
same,Relative enzymatic activity (%),[1]; 2-Propanol 5% (v/v),55 ± 11%
same,Relative enzymatic activity (%),[1]; 2-Propanol 10% (v/v),8%
same,Relative enzymatic activity (%),[1]; Acetone 1% (v/v),71 ± 2%
same,Relative enzymatic activity (%),[1]; Acetone 5% (v/v),47 ± 7%
same,Relative enzymatic activity (%),[1]; Dimethyl sulfoxide (DMSO) 10% (v/v),106 ± 4%
same,Relative enzymatic activity (%),[1]; Dimethyl sulfoxide (DMSO) 20% (v/v),14 ± 2%
same,Relative enzymatic activity (%),[1]; Dimethyl sulfoxide (DMSO) 30% (v/v),2%
same,Relative enzymatic activity (%),[1]; Dimethylformamide (DMF) 5% (v/v),55 ± 11%
same,Relative enzymatic activity (%),[1]; Methanol 10% (v/v),91 ± 12%
same,Relative enzymatic activity (%),[1]; Methanol 20% (v/v),8%
same,Residual ochratoxin A (%),[2]; 1 h,63%
same,Residual ochratoxin A (%),[2]; 4 h,17%
same,Residual ochratoxin A (%),[2]; 24 h,7%
same,Ochratoxin A Degradation per U and h,[2]; per 1 U of enzyme (pNP standard test) and hour at 37° C.,0.02 µmol
same,refolding,[3]; CD at 222 nm,refolding to some extent
same,midpoint transition temperature of refolding,"[3]; CD at 222 nm, high to low temperature",42.7 °C
same,melting temperature (Tm),"[3]; CD at 222 nm, unfolding",50.7 °C
same,Tm (° C.),[3]; estimated using CD-spectroscopy,51 ± 1 °C
same,pH opt.,pH dependence of enzymes,8.5
same,Relative activity (%),"pH dependence of enzymes; pH 6.5, sodium phosphate buffer",22 ± 1%
same,Relative activity (%),"pH dependence of enzymes; pH 7.0, sodium phosphate buffer",53 ± 2%
same,Relative activity (%),"pH dependence of enzymes; pH 7.5, sodium phosphate buffer",72 ± 4%
same,Relative activity (%),"pH dependence of enzymes; pH 8.0, Tris/HCl",87 ± 6%
same,Relative activity (%),"pH dependence of enzymes; pH 8.5, Tris/HCl",100* %
same,Relative activity (%),"pH dependence of enzymes; pH 9.0, Tris/HCl",96 ± 4%
same,Relative activity (%),"pH dependence of enzymes; pH 9.5, Tris/HCl",76 ± 7%
same,Relative activity (%),"pH dependence of enzymes; pH 10, Tris/HCl",37 ± 5%
same,Relative activity (%) after exposure to hydrogen peroxide,"[4]; H2O2 30 ppm, Day 0",100 ± 9%
same,Relative activity (%) after exposure to hydrogen peroxide,"[4]; H2O2 30 ppm, Day 1",90 ± 6%
same,Relative activity (%) after exposure to hydrogen peroxide,"[4]; H2O2 30 ppm, Day 2",75 ± 3%
same,Relative activity (%) after exposure to hydrogen peroxide,"[4]; H2O2 30 ppm, Day 3",75 ± 8%
same,Relative activity (%) after exposure to hydrogen peroxide,"[4]; H2O2 30 ppm, Day 7",76 ± 2%
same,Relative activity (%) after exposure to hydrogen peroxide,"[4]; H2O2 100 ppm, Day 0",104 ± 6%
same,Relative activity (%) after exposure to hydrogen peroxide,"[4]; H2O2 100 ppm, Day 1",91 ± 6%
same,Relative activity (%) after exposure to hydrogen peroxide,"[4]; H2O2 100 ppm, Day 2",88 ± 6%
same,Relative activity (%) after exposure to hydrogen peroxide,"[4]; H2O2 100 ppm, Day 3",76 ± 2%
same,Relative activity (%) after exposure to hydrogen peroxide,"[4]; H2O2 100 ppm, Day 7",66 ± 2%
same,Relative activity (%) after exposure to hydrogen peroxide,"[4]; H2O2 300 ppm, Day 0",102 ± 4%
same,Relative activity (%) after exposure to hydrogen peroxide,"[4]; H2O2 300 ppm, Day 1",87 ± 2%
same,Relative activity (%) after exposure to hydrogen peroxide,"[4]; H2O2 300 ppm, Day 2",74 ± 1%
same,Relative activity (%) after exposure to hydrogen peroxide,"[4]; H2O2 300 ppm, Day 3",63 ± 2%
same,Relative activity (%) after exposure to hydrogen peroxide,"[4]; H2O2 300 ppm, Day 7",49 ± 4%
same,Relative activity (%) after exposure to hydrogen peroxide,"[4]; H2O2 1,500 ppm, Day 0",102 ± 10%
same,Relative activity (%) after exposure to hydrogen peroxide,"[4]; H2O2 1,500 ppm, Day 1",80 ± 4%
same,Relative activity (%) after exposure to hydrogen peroxide,"[4]; H2O2 1,500 ppm, Day 2",67 ± 4%
same,Relative activity (%) after exposure to hydrogen peroxide,"[4]; H2O2 1,500 ppm, Day 3",44 ± 2%
same,Relative activity (%) after exposure to hydrogen peroxide,"[4]; H2O2 1,500 ppm, Day 7",11 ± 1%
same,Relative activity (%) after exposure to hydrogen peroxide,"[4]; H2O2 3,000 ppm, Day 0",98 ± 9%
same,Relative activity (%) after exposure to hydrogen peroxide,"[4]; H2O2 3,000 ppm, Day 1",60 ± 2%
same,Relative activity (%) after exposure to hydrogen peroxide,"[4]; H2O2 3,000 ppm, Day 2",33 ± 1%
same,Relative activity (%) after exposure to hydrogen peroxide,"[4]; H2O2 3,000 ppm, Day 3",20 ± 4%
same,Relative activity (%) after exposure to hydrogen peroxide,"[4]; H2O2 3,000 ppm, Day 7",no activity was detected
same,activity of crude culture supernatant,[5],1.6 U/mL
